Results from patent US20080234198A1 (Eli Lilly, published 2008).

Target: T1, human VPAC2 receptor (human), P41587
T1 chain: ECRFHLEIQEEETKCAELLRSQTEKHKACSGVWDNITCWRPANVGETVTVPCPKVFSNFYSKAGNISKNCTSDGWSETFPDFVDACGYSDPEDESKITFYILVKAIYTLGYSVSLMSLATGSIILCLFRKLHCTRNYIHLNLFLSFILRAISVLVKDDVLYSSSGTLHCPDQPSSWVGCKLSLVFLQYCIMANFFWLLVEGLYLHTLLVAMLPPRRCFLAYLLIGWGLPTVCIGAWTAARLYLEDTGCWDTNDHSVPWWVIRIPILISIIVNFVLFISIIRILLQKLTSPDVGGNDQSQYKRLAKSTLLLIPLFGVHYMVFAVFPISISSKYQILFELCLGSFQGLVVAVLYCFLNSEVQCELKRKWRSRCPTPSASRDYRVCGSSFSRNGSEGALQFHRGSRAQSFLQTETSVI
Experiment: filter binding, VPAC2 cell membranes, displacement of 125I-VIP
Conditions: remark: other sources report otherwise

B1: P533 (peptide)
peptide: HSDAVFTEQYTXLRXQXAAXXYLQSIXXGGPSSGAPPPS
modifications: here or on the partner: C6-HSDAVFTEQY(OMe)TOrnLRAibQK(WPEG40K)AAAibOrnYLQSIOrnOrnGGPSSGAPPPS-NH2
- IC50: 959 nM
